Reference: patent publication US20230357429A1 (JANUX THERAPEUTICS, published 2023)
Values belong to the binder of their own block, whether it stands above or below them. Where no end group is shown, it is not given here.

Assays:
[1] = target: T1, Human TROP2 ECD (31-274 AA), biotinylated (human, UniProt P09758 31-274, biotinylated (site not stated)); test: ELISA on immobilized TROP2
T1 construct: also called tumor-associated calcium signal transducer 2; Human TROP2-biotin
T1 sequence: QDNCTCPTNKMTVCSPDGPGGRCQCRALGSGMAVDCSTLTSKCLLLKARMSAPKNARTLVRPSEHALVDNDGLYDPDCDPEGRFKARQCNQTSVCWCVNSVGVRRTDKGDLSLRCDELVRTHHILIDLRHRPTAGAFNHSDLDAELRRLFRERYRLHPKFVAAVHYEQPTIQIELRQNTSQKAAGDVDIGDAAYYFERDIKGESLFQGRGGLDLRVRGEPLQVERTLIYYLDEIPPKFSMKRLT

[2] = target: T1, Human TROP2 ECD (31-274 AA), …; test: ELISA on immobilized TROP2; remark: listed apart in the source
[3] = target: T1, Human TROP2 ECD (31-274 AA), …; test: ELISA on immobilized TROP2; remark: listed apart in the source
[4] = target: T2, TCE-14 (anti-CD3 scFv F104A; anti-TROP2 wt); test: competition ELISA, TCE on captured CD3
T2 construct: scFv on the Fab heavy chain; also called TCE-14 (F104A)

[5] = target: T3, TCE-13 (anti-CD3 scFv N103A; anti-TROP2 wt); test: competition ELISA, TCE on captured CD3
T3 construct: scFv on the Fab heavy chain; also called TCE-13 (N103A)

[6] = target: T4, TCE-11 (anti-CD3 scFv H101A; anti-TROP2 wt); test: competition ELISA, TCE on captured CD3
T4 construct: scFv on the Fab heavy chain; also called TCE-11 (H101A)

[7] = target: T5, TCE-10 (anti-CD3 scFv R100A; anti-TROP2 wt); test: competition ELISA, TCE on captured CD3
T5 construct: scFv on the Fab heavy chain; also called TCE-10 (R100A)

[8] = target: T6, TCE-20 (anti-CD3 scFv S110A; anti-TROP2 wt); test: competition ELISA, TCE on captured CD3
T6 construct: scFv on the Fab heavy chain; also called TCE-20 (S110A)

[9] = target: T7, TCE-1 (anti-CD3 scFv wt; anti-TROP2 Fab wt); test: competition ELISA: peptide titrated and pre-incubated with a constant concentration of TCE-1, binding of TCE-1 to plate-bound biotinylated CD3 detected
T7 construct: anti-CD3 scFv fused to the N-terminus of the anti-TROP2 Fab heavy chain; also called TCE-1 (wt)

[10] = target: T8, TCE-22 (anti-CD3 scFv W112A; anti-TROP2 wt); test: competition ELISA, TCE on captured CD3
T8 construct: scFv on the Fab heavy chain; also called TCE-22 (W112A)

[11] = target: T9, TCE-31 (anti-CD3 scFv W238A; anti-TROP2 wt); test: competition ELISA, TCE on captured CD3
T9 construct: scFv on the Fab heavy chain; also called TCE-31 (W238A)

[12] = target: T10, TCE-33 (anti-CD3 scFv F240A; anti-TROP2 wt); test: competition ELISA, TCE on captured CD3
T10 construct: scFv on the Fab heavy chain; also called TCE-33 (F240A)

[13] = target: T1, Human TROP2 ECD (31-274 AA), …; test: ELISA: biotinylated TROP2 captured on neutravidin plate, Fab titrated, HRP secondary antibody
[14] = target: T1, Human TROP2 ECD (31-274 AA), …; test: ELISA, ratio of EC50 to that of TBD-1 wt
[15] = target: T1, Human TROP2 ECD (31-274 AA), …; test: ELISA, biotinylated TROP2 ECD on neutravidin plate, Fab titrated
Human TROP2 Full length = target: T11, Human TROP2 Full length (human, UniProt P09758 31-323); test: cell-based or functional assay
T11 sequence: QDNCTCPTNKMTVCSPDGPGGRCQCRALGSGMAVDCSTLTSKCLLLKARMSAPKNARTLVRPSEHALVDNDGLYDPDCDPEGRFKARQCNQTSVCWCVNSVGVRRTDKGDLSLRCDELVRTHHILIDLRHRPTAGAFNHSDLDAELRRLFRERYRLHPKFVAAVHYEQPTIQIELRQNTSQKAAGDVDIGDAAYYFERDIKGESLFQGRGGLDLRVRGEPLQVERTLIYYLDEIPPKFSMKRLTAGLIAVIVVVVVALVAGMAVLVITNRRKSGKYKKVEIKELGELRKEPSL

B2: PC-11 (bispecific antibody)
light: not shown
heavy: GGVDFCGLYHWPICYQGGGGSSGGSAAGLLAPPGGLSGRSDAGGGGSQVQLQQSGSELKKPGASVKVSCKASGYTFTNYGMNWVKQAPGQGLKWMGWINTYTGEPTYTDDFKGRFAFSLDTSVSTAYLQISSLKADDTAVYFCARGGFGSSYWYFAVWGQGSLVTVSSASTKGPSVFPLAPSSKSTSGGTAALGCLVKDYFPEPVTVSWNSGALTSGVHTFPAVLQSSGLYSLSSVVTVPSSSLGTQTYICNVNHKPSNTKVDKKVEPKSC
notes: anti-TROP2 D109A
EC50 [2]: 379 nM

B3: PC-6 (bispecific antibody)
light: GGVDFCGLYHWPICYQGGGGSGGLSGRSDAGSPLGLAGSGGSDIQLTQSPSSLSASVGDRVSITCKASQDVSIAVAWYQQKPGKAPKLLIYSASYRYTGVPDRFSGSGSGTDFTLTISSLQPEDFAVYYCQQHYITPLTFGAGTKVEIKRTVAAPSVFIFPPSDEQLKSGTASVVCLLNNFYPREAKVQWKVDNALQSGNSQESVTEQDSKDSTYSLSSTLTLSKADYEKHKVYACEVTHQGLSSPVTKSFNRGEC
heavy: not shown
notes: anti-TROP2 wt
EC50 [1]: 32.9 nM
EC50 [3]: 16.6 nM

B7: Peptide-67 (peptide)
peptide: VYCGPEFDESVGCM
modifications: cysteine pairing not given here; also: biotinylated, site not given here
notes: mask peptide for the CD3 scFv
IC50 [4]: 240 nM
IC50 [5]: 3360 nM
IC50 [6]: 2820 nM
IC50 [7]: 18600 nM
IC50 [8]: 1320 nM
binding result [9]: binds
IC50 [10]: 38500 nM
IC50 [11]: 21600 nM
IC50 [12]: 1250 nM

B10: PC-7 (bispecific antibody)
light: not shown
heavy: GGVDFCGLYHWPICYQGGGGSGGLSGRSDAGSPLGLAGSGGSQVQLQQSGSELKKPGASVKVSCKASGYTFTNYGMNWVKQAPGQGLKWMGWINTYTGEPTYTDDFKGRFAFSLDTSVSTAYLQISSLKADDTAVYFCARGGFGSSYWYFDVWGQGSLVTVSSASTKGPSVFPLAPSSKSTSGGTAALGCLVKDYFPEPVTVSWNSGALTSGVHTFPAVLQSSGLYSLSSVVTVPSSSLGTQTYICNVNHKPSNTKVDKKVEPKSC
notes: anti-TROP2 wt
EC50 [1]: 24.6 nM

B11: TCE-39 (bispecific antibody)
light: DIQLTQSPSSLSASVGDRVSITCKASQDVSIAVAWYQQKPGKAPKLLIYSASYRYTGVPDRFSGSGSGTDFTLTISSLQPEDFAVYYCQQHYITPLTFGAGTKVEIKRTVAAPSVFIFPPSDEQLKSGTASVVCLLNNFYPREAKVQWKVDNALQSGNSQESVTEQDSKDSTYSLSSTLTLSKADYEKHKVYACEVTHQGLSSPVTKSFNRGEC
heavy: EVQLVESGGGLVQPGGSLKLSCAASGFTFNKYAMNWVRQASGKGLEWVGRIRSKYNNYATYYADSVKDRFTISRDDSKNTAYLQMNSLKTEDTAVYYCVRHGNFGNSYISYWAYWGQGTLVTVSSGGGGSGGGGSGGGGSQTVVTQEPSFSVSPGGTVTLTCRSSTGAVTSGNYANWVQQTPGQAPRGLIGGTKFLAPGVPDRFSGSILGNKAALTITGAQADDESDYYCVLWYSNRWVFGGGTKLTVLGGGGSQVQLQQSGSELKKPGASVKVSCKASGYTFTNYGMNWVKQAPGQGLKWMGWINTYTGEPTYTDDFKGRFAFSLDTSVSTAYLQISSLKADDTAVYFCARGGFGSSYWYADVWGQGSLVTVSSASTKGPSVFPLAPSSKSTSGGTAALGCLVKDYFPEPVTVSWNSGALTSGVHTFPAVLQSSGLYSLSSVVTVPSSSLGTQTYICNVNHKPSNTKVDKKVEPKSC
HCT116 Cytotoxicity EC50 (pM) (Human TROP2 Full length): 73.2 pM

B12: TCE-49 (bispecific antibody)
light: DIQLTQSPSSLSASVGDRVSITCKASQDVSIAVAWYQQKPGKAPKLLIYSASYRYTGVPDRFSGSGSGTDFTLTISSLQPEDFAVYYCQQHYITPLTFGAGTKVEIKRTVAAPSVFIFPPSDEQLKSGTASVVCLLNNFYPREAKVQWKVDNALQSGNSQESVTEQDSKDSTYSLSSTLTLSKADYEKHKVYACEVTHQGLSSPVTKSFNRGEC
heavy: not shown
H292 Cytotoxicity EC50 (pM) (Human TROP2 Full length): 3.9 pM

The remaining lines, values ahead:

EC50 [1]: 0.13 nM
B1: TCE-2 (bispecific antibody)
light: not shown
heavy: QVQLQQSGSELKKPGASVKVSCKASGYTFTNYGMNWVKQAPGQGLKWMGWINTYTGEPTYTDDFKGRFAFSLDTSVSTAYLQISSLKADDTAVYFCARGGFGSSYWYFDVWGQGSLVTVSSASTKGPSVFPLAPSSKSTSGGTAALGCLVKDYFPEPVTVSWNSGALTSGVHTFPAVLQSSGLYSLSSVVTVPSSSLGTQTYICNVNHKPSNTKVDKKVEPKSC

EC50 [3]: 25 nM
B4: PC-28 (bispecific antibody)
light: GGIDFCMLYNWPICAGGGGGSGGLSGRSDAGSPLGLAGSGGSDIQLTQSPSSLSASVGDRVSITCKASQDVSIAVAWYQQKPGKAPKLLIYSASYRYTGVPDRFSGSGSGTDFTLTISSLQPEDFAVYYCQQHYITPLTFGAGTKVEIKRTVAAPSVFIFPPSDEQLKSGTASVVCLLNNFYPREAKVQWKVDNALQSGNSQESVTEQDSKDSTYSLSSTLTLSKADYEKHKVYACEVTHQGLSSPVTKSFNRGEC
heavy: not shown
notes: anti-TROP2 wt

EC50 [3]: 16.3 nM
B5: PC-29 (bispecific antibody)
light: GGVDFCGLYHWPICYQGGGGSGGLSGRSDAGSPLGLAGSGGSDIQLTQSPSSLSASVGDRVSITCKASQDVSIAVAWYQQKPGKAPKLLIYSASYRYTGVPDRFSGSGSGTDFTLTISSLQPEDFAVYYCQQHYITPLTFGAGTKVEIKRTVAAPSVFIFPPSDEQLKSGTASVVCLLNNFYPREAKVQWKVDNALQSGNSQESVTEQDSKDSTYSLSSTLTLSKADYEKHKVYACEVTHQGLSSPVTKSFNRGEC
heavy: not shown
notes: anti-TROP2 wt

IC50 [4]: 2470 nM
IC50 [5]: 10600 nM
IC50 [6]: 1110 nM
IC50 [7]: 16100 nM
IC50 [8]: 86600 nM
binding result [9]: binds
IC50 [10]: 75400 nM
IC50 [11]: 33800 nM
IC50 [12]: 3080 nM
B6: Peptide-74 (peptide)
peptide: ASQCLGPEWEVCPY
modifications: cysteine pairing not given here; also: biotinylated, site not given here
notes: mask peptide for the CD3 scFv

IC50 [4]: 320 nM
IC50 [5]: 3960 nM
IC50 [6]: 790 nM
IC50 [7]: 45600 nM
IC50 [8]: 3650 nM
IC50 (read off the curve) [9]: ~300 nM
IC50 [10]: 40200 nM
IC50 [11]: 29900 nM
IC50 [12]: 2700 nM
B8: Peptide-72 (peptide)
peptide: AYCGPEFDESVGCM
modifications: cysteine pairing not given here; also: biotinylated, site not given here
notes: mask peptide for the CD3 scFv

EC50 [13]: 801 nM
Fold shift in EC50 relative to wt [14]: 4000 fold
EC50 [15]: 801 nM
B9: TBD-18 (anti-TROP2 Fab, HC Y105A) (Fab, V domains shown)
VH: QVQLQQSGSELKKPGASVKVSCKASGYTFTNYGMNWVKQAPGQGLKWMGWINTYTGEPTYTDDFKGRFAFSLDTSVSTAYLQISSLKADDTAVYFCARGGFGSSAWYFDVWGQGSLVTVSS
VL: DIQLTQSPSSLSASVGDRVSITCKASQDVSIAVAWYQQKPGKAPKLLIYSASYRYTGVPDRFSGSGSGTDFTLTISSLQPEDFAVYYCQQHYITPLTFGAGTKVEIKR
